Test results taken from the supplement of paper PMC9170038.

System: MS2 coat protein
Test: apparent KD of MS2 coat protein; designed switch direction (-1 OFF switch, 1 ON switch): -1; higher = weaker reporter binding
Summary of the method: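 The reported apparent KD is a per-design median over clusters, from curve fits of normalised cluster fluorescence. Protein titrations used SNAP-549-labelled MS2 coat protein, doubled from 0.7 or 1.5 nM to 3 µM, in Tris-HCl pH 7.5 buffer with KCl, MgCl2, BSA, DTT, tRNA and Tween-20, with no input, 200 uM small-molecule ligand, or an oligonucleotide input. The RNA switches were transcribed on Illumina chips by stalled E. coli RNA polymerase.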

[1] = input ligand: microRNA oligo, concentration not stated
[2] = Eterna round: R95, input ligand: microRNA oligo, concentration not stated
[3] = Eterna round: R95, input ligand: FMN 200 uM
[4] = Eterna round: R95, input ligand: none

| Sequence | apparent KD of MS2 coat protein (input ligand: FMN 200 uM) | apparent KD of MS2 coat protein (input ligand: none) | apparent KD of MS2 coat protein [1] | apparent KD of MS2 coat protein [2] | apparent KD of MS2 coat protein [3] | apparent KD of MS2 coat protein [4] |
| --- | --- | --- | --- | --- | --- | --- |
| AAUUAGCAAGCGAGAUCCCACAUGAGGAUCACCCAUGUGCUCGUCUUAUAUAAGGUACUGUACAAAAGUACGGUACC [Mat - Sensor, turn-off var - Eli Mod - D32] (Eterna round: R97, puzzle: Sensor, turn-off variant 1) | 14.5 nM | 14.1 nM |  |  |  |  |
| AAUUAGCAAGCGAGAUCUCACAUGAGGAUCACCCAUGUGCUCGUCUUAUAAGGUACUGUGACGAAAGUCACGGUACC [Mat - Sensor, turn-off var - Eli Mod - D40] (Eterna round: R97, puzzle: Sensor, turn-off variant 1) | 14.8 nM | 15.8 nM |  |  |  |  |
| AAUUAUUUUUGAGGAUAUGGUAGUGAAACACUACCAGAAGGCGGAAUAAACAUGAGGAUCACCCAUGUGAGCCUGAUGCUUAUG [Ex NG1 #46] (Eterna round: R96, puzzle: Exclusion NG 1) |  |  | 17.9 nM |  |  |  |
| AAUUCACAUGAGGAUCACCCAUGUCAGGAUAUGGUUUCACGUUUUUCUUUUCUUGAUUCCAGAAGGGACAGCUA (puzzle: Exclusion 1) |  |  |  | 58.6 nM |  |  |
| AAUUCGCAAGCGAGAUCCCACAUGAGGAUCACCCAUGUGCUCGUCUUAUAAGGUACUGUGACAAAAGUCACGGUACC [Mat - Sensor, turn-off var - Eli Mod - D84] (Eterna round: R97, puzzle: Sensor, turn-off variant 1) | 14.3 nM | 13.2 nM |  |  |  |  |
| AAUUGCUAGCCGAUCCUCCACAUGAGGAUCACCCAUGUGCUCGUCUUGUAAUGUGCUAUCACGAAAGUGAUAGUACA [Sensor v3, turn-off variant 1 (MOD of Eli's v1-59 v.4)] (puzzle: Sensor v3, turn-off variant 1) |  |  |  | 13.4 nM | 413 nM | 315 nM |
| AAUUUAAUUAACAAGCUUUACAUGAGGAUCACCCAUGUGAUCAUGCUCGUCUUAGGUACAGGCUUCGGCCUGUACCA [Stov1/6-B1] (Eterna round: R97, puzzle: Sensor, turn-off variant 1) | 49.7 nM | 55.5 nM |  |  |  |  |
| AAUUUACAUGAGGAUCACCCAUGUCAGGAUAUGGUUUUAUUUUUUUUUUUUUUUGAUUCCAGAAGGGACAGUUA (puzzle: Exclusion 1) |  |  |  | 22.7 nM |  |  |
| AAUUUACAUGAGGAUCACCCAUGUGAGGAUAUAUACAAAGAAGUGUUAUUAAGAAUGUAUAGAAGGCGCGUGAU [JR_Exc1_Sub039] (Eterna round: R97, puzzle: Exclusion 1) | 73.6 nM | 62 nM |  |  |  |  |
| AAUUUACAUGAGGAUCACCCAUGUGAGGAUAUGGAUUCGCUGGCCGUAGCCAGUGGAUCCAGAAGGCGCAUGAU [JL-ex1-4.12] (Eterna round: R97, puzzle: Exclusion 1) | 402 nM | 94.8 nM |  |  |  |  |
| AAUUUAUGAGGAUAUACAGUGUAAAACAUGAGGAUCACCCAUGUUCUUCAAUUAGUAUAUGUAGAAGGCAUAUGUA [JR_Ex5_Sub096] (Eterna round: R97, puzzle: Exclusion 5) | 15 nM | 13.7 nM |  |  |  |  |
| AAUUUGCAAGCGAGAUCCCACAUGAGGAUCACCCAUGUGCUCGUCUUAUAAGGUACUGUGACAAAAGUCACGGUACC [Mat - Sensor, turn-off var - Eli Mod - D95] (Eterna round: R97, puzzle: Sensor, turn-off variant 1) | 16.6 nM | 16.8 nM |  |  |  |  |
| ACAAAGCUAGGAUAUGUGGCGGAUAACAUGAGGAUCACCCAUGUGAGCUCACAGAUCCGAGCAGAAGGAGCGAUUA [EX5 A.10] (Eterna round: R97, puzzle: Exclusion 5) | 15.3 nM | 14.6 nM |  |  |  |  |
| ACAAGAGCGGAAGGAUAUUGUACAUGAGGAUCACCCAUGUAAUAAAUGAGGAUCACGGAUGUAGUCAAGAAGGUCCGGAUAAGA [Ostracism 1 - Jieux - Exclusion NG 2] (Eterna round: R96, puzzle: Exclusion NG 2) | 47.7 nM | 50.6 nM | 60.8 nM |  |  |  |
| ACAAGCAGAGAGUAAAUGGACAUGAGGAUCACCCAUGUGAGUCCGAAGAGAUAAGAUAUAUUGUCGGCUCGUCUUAU [AK-miRNA-r3-21] (Eterna round: R97, puzzle: Sensor, turn-off variant 1) | 105 nM | 105 nM |  |  |  |  |
| ACAAGCGAAAGGCUCGUCUUAUUUUUGUAGAGGUUCUAAACAUGAGGAUCACCCAUGUAGUGGUUAUGGUGGAGGUA [JR_SV3TOV2_Sub070] (puzzle: Sensor v3, turn-off variant 2) |  |  |  | 64.4 nM | 57.1 nM | 74.6 nM |
| ACAAGCGUUAAGGAUAUACUGCCCUCAUUCUCGGUAGAAGGUAACACUUGAGGAUCACCCAAGUGAAAACCUGA [Erxeesis] (Eterna round: R97, puzzle: Exclusion 6) | 10.6 nM | 9.67 nM |  |  |  |  |
| ACAAGCGUUUUGCUCGUAAAGUAGGAACGCGAGAGCGGCACAUGAGGAUCACCCAUGUAGAGGCAGUUGGUGGAGAU [JR_SV3TOV2_Sub030] (puzzle: Sensor v3, turn-off variant 2) |  |  |  | 24.2 nM | 24.5 nM | 25.3 nM |
| ACAAGCUAAAUCAUAUCUUACAUGAGGAUCACCCAUGUUUUUGCAAUUAUGUUUGGCCUCCUUUGUGCUCGUCUUAU [JR_STOV1_Sub051] (Eterna round: R97, puzzle: Sensor, turn-off variant 1) | 16.4 nM | 16.7 nM |  |  |  |  |
| ACAAGCUUCGAUAUCCUUAACAUGAGGAUCACCCAUGUUCGUCUUAUGAUGGUCUGAUCCCUGAGGAUCGGACCGUU [JL-sv1-2.09 Brourd Mod] (puzzle: Sensor v3, turn-off variant 1) |  |  |  | 62.3 nM | 40.9 nM | 40.4 nM |
| ACAAGCUUUUAGAUUCUUAACAUGAGGAUCACCCAUGUGCUCGUCUUAUUGGCCGGCCGGCCGCCGGCCGGCCGGCC (Eterna round: R97, puzzle: Sensor, turn-off variant 1) | 43.6 nM | 40.9 nM |  |  |  |  |
| ACAAGCUUUUUGCUCGGGUACAUGAGGAUCACCCAUGUUUGUGUUUAUUGAGGUUGUGUUGUCGUGCGCUGCAGGUU [JR_SV3TOV1_Sub077] (puzzle: Sensor v3, turn-off variant 1) |  |  |  | 38.7 nM | 59.3 nM | 66.5 nM |
| ACAAGCUUUUUGUUCGUCUUAUAAUAAUAAAUAAAUAUAACAUGAGGAUCACCCAUGUUGAGAAGACAACCUCAUGU [Sesor Array 24 - Jieux - Sensor v3, turn-off variant 2] (puzzle: Sensor v3, turn-off variant 2) |  |  |  | 108 nM | 242 nM | 420 nM |
| ACAAGUUUUUAGAUUCUUAACAUGAGGAUCACCCAUGUGCUCGUCUUGUUGGGCCCGGGCCCGCCGGGCCCGGGCCC (Eterna round: R97, puzzle: Sensor, turn-off variant 1) | 60.5 nM | 72.2 nM |  |  |  |  |
| ACAAGUUUUUAGAUUCUUAACAUGAGGAUCACCCAUGUGCUCGUCUUGUUUGUACUAUCACCGAAGGUGAUAGUACA (Eterna round: R97, puzzle: Sensor, turn-off variant 1) | 69.9 nM | 70 nM |  |  |  |  |
| ACACCACAUGAGGAUCACCCAUGUAAGGAUAUAACGCAUCCGCGUAACUGCGGGCAAGUUAGAAGGUGUAUGGG [Eternabot (L2) Solution 91] (Eterna round: R97, puzzle: Exclusion 1) | 91.9 nM | 49.6 nM |  |  |  |  |
| ACACUGCGAGGAUAUACAUGAGGAUCACCCAUGUGUCGGCAGCCACGGUAGCACUAGUGUAGAAGGCGCAUUAG [EX3 #42] (Eterna round: R97, puzzle: Exclusion 3) | 41.1 nM | 28.3 nM |  |  |  |  |
| ACAGCUAAUCUGCUCGUCUACAUGAGGAUCACCCAUGUCAUGGUCCACCUAAGAGUCAGUUACCCAAGUGAUAUUCG [Eternabot (L1) Solution 29] (Eterna round: R97, puzzle: Sensor, turn-off variant 1) | 204 nM | 224 nM |  |  |  |  |
| ACAGUGUUAGGAUAUGUGUGAGUUAGUCUCGACUAGUCGAUGCAGAAGGAACAUGAGGAUCACCCAUGUAGAUC [EX4 #80] (Eterna round: R97, puzzle: Exclusion 4) | 136 nM | 64 nM |  |  |  |  |
| ACAUCACAGCUAGGAUAUAGAUGACAUGAGGAUCACCCAUGUUAUCCCAUGUUGACGAAAACCGACUAGAAGGAGCUACAGAUG [Ex NG2 #6] (Eterna round: R96, puzzle: Exclusion NG 2) | 101 nM | 63.7 nM | 40.2 nM |  |  |  |
